The target of data set [1] is ModTad2 (Tad2 homolog encoded by a prophage of Myroides odoratus) (prophage of Myroides odoratus). The data set can be described thus: crystal structure.
The data set “crystal structure” concerns the molecule itself. Briefly: crystal structure.

Regarding “ModTad2 (Tad2 homolog encoded by a prophage of Myroides odoratus) (natural protein)”, the stoichiometry N in data set [1] amounted to 4.

B1: Macro domain of ThsA(amylo) (residues 83-297), type II Thoeris of Bacillus amyloliquefaciens Y2 (domain or fragment, UniProt I2C645 83-297, looked up)
chain: NNITLNLNGSEVEIKKGDIFEVPRNNYKVIAFNEYFDTQVDDVIIARETLNGQYIKRYYSHQDITELDQKIKDDVKLKIEEKNVERPFGGKTTRYSLGSVFKDMDFFLVAFSKFDRENRAQLKLNEYASCMLNVWNEINTLHASKEVFIPLLGSGITRHVDSDVGVNELLHIMLWTFQISKVKFREPAKVTILLYKNDHKKINFYKLKEFEKNGL
In the case of B1, the “stoichiometry N” value in “crystal structure” came out at 2.

Usually stoichiometry N stands for a count of units in the complex or per binding partner.
